The values that follow come from article PMC11193222, “The serine-rich repeat glycoprotein Srr2 mediates Streptococcus agalactiae interaction with host fibronectin” (BMC Microbiology, 2024).

The target of assay [1] is recombinant Srr2 binding region (rSrr2-BR) (Streptococcus agalactiae (GBS) strain BM110) (UniProt Q3S2Y8). As to the kind of experiment: ELISA; Srr2 proteins coated on microtiter wells (1 ug/well, 0.1 M sodium carbonate pH 9.5); soluble Fn (up to 240 nM) or Fbg (up to 7.5 nM) for 1 h; detected with mouse anti-Fn or anti-Fbg IgG; apparent Kd; in a further set increasing NaCl (0 to 1 M) strongly impaired the binding to rSrr2-BR. In general terms: In an ELISA, binding on a coated surface is turned into a signal by an enzyme label.

For assay [2] the target is unchanged. As to the kind of experiment: SPR; rSrr2 proteins amine-coupled to a CM5 chip (Biacore X-100); Fn injected; 25 °C, HEPES-EP+ pH 7.4, 0.15 M NaCl, 30 uL/min; steady-state fit, 1:1 model. For orientation: SPR reads the build-up and loss of mass on a sensor chip optically.
For a further assay, the target named is human fibrinogen (Fbg) (human, UniProt P02671 36-866); P02675 45-491; P02679 27-453, Plasma-derived, disulfide-linked hexamer, glycosylated. Chains are the circulating forms by convention: A-alpha 610 aa, B-beta 461 aa, gamma-A 411 aa (the canonical P02679 sequence is gamma-B, so gamm). The experiment in a line: ELISA; Srr2 proteins coated on microtiter wells (1 ug/well, 0.1 M sodium carbonate pH 9.5); soluble Fn (up to 240 nM) or Fbg (up to 7.5 nM) for 1 h; detected with mouse anti-Fn or anti-Fbg IgG; apparent Kd; in a further set increasing NaCl (0 to 1 M) strongly impaired the binding to rSrr2-BR. To be noted: both partners purified.

In assay [3] the target is human plasma fibronectin (Fn) (human). The experiment in a line: ELISA; apparent; soluble Srr2-BR on immobilized Fn.
Sequence of human plasma fibronectin (Fn) (human) (P02751 other isoform, or with tags, fused parts or gaps, chain 1 of 2): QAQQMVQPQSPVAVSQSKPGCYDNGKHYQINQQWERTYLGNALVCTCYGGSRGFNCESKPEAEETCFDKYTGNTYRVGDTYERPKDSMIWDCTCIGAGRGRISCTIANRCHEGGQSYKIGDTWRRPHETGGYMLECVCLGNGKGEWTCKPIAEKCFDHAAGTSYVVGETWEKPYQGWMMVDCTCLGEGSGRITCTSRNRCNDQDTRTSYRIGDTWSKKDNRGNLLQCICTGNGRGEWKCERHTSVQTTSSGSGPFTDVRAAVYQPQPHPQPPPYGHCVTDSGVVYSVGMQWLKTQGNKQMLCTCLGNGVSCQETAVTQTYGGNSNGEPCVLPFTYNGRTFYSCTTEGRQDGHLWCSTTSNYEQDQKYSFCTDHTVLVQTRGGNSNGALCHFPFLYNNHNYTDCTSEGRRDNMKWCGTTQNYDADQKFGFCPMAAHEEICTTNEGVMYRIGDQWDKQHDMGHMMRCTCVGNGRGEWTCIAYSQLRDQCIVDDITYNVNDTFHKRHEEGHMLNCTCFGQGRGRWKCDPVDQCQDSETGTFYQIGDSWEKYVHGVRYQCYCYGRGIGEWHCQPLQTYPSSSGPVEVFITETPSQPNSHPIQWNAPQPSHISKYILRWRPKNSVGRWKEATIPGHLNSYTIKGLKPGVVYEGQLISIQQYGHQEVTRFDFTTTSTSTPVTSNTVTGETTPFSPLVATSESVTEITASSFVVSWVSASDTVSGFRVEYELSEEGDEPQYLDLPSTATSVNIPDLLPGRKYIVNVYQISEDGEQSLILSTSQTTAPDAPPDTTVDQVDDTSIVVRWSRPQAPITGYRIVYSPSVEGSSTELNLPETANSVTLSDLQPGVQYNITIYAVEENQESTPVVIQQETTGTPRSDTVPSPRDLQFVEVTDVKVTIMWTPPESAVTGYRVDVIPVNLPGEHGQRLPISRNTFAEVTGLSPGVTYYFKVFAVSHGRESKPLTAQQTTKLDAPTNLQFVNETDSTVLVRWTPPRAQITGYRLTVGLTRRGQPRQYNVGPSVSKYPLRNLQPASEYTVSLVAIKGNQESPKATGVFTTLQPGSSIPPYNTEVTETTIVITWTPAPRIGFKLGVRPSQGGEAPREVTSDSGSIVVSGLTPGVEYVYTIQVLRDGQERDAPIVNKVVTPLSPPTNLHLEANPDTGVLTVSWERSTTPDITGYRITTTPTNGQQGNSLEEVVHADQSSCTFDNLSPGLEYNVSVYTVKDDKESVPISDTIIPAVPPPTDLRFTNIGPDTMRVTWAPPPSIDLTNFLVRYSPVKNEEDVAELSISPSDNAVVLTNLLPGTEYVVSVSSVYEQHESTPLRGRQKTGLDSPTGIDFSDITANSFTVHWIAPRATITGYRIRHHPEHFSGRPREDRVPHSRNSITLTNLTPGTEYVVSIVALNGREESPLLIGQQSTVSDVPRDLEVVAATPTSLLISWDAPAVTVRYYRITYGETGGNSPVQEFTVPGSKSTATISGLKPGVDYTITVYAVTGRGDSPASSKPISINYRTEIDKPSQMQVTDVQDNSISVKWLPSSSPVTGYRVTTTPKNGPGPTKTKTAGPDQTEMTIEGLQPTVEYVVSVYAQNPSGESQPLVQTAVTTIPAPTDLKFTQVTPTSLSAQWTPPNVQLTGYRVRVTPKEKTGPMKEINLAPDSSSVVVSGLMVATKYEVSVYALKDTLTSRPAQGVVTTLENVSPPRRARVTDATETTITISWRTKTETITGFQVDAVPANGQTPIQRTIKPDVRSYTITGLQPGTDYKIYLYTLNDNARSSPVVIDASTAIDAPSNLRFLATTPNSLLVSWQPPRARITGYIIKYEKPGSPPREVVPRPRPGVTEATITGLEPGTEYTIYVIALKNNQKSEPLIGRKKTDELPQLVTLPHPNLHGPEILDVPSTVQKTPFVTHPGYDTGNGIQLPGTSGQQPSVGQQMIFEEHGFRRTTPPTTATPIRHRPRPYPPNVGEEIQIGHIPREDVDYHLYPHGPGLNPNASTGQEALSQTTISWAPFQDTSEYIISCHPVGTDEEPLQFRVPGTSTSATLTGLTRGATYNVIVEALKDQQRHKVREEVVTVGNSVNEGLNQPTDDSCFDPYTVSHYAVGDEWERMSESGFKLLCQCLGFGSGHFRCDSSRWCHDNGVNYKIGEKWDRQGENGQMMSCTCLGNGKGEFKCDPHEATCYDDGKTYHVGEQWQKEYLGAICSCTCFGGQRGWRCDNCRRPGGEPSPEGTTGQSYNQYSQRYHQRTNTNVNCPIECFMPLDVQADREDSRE
Sequence of human plasma fibronectin (Fn) (human) (P02751 other isoform, or with tags, fused parts or gaps, chain 2 of 2): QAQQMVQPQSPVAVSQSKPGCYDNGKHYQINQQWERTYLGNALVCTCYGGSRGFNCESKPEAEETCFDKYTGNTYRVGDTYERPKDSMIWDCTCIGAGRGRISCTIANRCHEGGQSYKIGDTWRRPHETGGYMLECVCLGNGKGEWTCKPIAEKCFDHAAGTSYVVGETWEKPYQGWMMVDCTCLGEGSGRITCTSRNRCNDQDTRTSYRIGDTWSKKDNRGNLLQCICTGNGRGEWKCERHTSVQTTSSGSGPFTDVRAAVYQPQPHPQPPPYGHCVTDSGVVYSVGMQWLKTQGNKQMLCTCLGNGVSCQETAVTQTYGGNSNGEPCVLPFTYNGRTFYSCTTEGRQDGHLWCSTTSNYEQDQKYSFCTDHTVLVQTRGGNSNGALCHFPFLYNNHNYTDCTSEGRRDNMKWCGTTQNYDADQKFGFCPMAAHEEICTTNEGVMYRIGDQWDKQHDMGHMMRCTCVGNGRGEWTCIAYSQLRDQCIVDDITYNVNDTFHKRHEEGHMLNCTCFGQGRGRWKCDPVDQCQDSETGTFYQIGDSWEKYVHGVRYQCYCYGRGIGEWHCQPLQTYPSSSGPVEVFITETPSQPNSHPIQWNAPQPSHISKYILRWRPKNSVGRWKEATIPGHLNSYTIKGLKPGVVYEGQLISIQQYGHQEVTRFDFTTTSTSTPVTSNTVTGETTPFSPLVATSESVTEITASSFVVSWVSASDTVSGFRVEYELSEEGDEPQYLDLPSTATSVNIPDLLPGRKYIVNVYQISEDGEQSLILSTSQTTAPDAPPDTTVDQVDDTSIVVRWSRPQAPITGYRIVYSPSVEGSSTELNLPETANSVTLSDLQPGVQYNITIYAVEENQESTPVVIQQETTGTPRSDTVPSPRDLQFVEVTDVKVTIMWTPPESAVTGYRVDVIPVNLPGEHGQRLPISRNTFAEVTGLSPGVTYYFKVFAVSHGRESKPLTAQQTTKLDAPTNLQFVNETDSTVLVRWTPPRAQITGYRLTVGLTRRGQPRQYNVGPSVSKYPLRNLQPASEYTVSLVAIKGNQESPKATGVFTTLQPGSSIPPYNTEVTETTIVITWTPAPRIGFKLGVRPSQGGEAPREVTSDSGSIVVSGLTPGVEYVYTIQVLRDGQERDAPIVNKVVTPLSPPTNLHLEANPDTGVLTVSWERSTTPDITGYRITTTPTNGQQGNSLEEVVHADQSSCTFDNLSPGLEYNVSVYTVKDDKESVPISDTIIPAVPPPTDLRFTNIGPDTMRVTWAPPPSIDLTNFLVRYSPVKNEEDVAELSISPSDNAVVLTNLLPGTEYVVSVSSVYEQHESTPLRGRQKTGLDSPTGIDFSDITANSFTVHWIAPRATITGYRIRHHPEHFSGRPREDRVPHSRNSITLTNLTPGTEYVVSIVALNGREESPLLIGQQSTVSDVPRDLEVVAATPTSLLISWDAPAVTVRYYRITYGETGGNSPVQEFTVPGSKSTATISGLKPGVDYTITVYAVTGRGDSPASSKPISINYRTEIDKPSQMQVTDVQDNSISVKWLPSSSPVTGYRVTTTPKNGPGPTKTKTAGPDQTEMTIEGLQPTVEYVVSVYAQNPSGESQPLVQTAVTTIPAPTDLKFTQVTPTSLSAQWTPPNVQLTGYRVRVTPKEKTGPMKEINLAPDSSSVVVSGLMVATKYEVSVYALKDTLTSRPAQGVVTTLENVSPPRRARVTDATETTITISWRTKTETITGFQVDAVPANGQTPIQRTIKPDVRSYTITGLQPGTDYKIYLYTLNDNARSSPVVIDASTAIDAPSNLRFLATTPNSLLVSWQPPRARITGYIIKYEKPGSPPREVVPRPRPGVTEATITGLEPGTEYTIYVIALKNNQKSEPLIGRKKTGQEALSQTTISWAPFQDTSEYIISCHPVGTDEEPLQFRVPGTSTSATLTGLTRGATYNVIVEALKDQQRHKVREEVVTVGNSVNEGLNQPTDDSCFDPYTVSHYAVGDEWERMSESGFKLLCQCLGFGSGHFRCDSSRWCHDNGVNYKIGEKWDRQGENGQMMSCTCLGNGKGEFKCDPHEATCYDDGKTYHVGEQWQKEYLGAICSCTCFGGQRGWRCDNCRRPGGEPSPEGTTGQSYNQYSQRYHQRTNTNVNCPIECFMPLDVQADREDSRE

In the case of “human plasma fibronectin (Fn) (natural protein)”, the Kd turned out to be 30 nM in assay [1] and 92 nM in assay [2].

B1: recombinant Srr2 binding region (rSrr2-BR) (domain or fragment)
chain: EAATTARVQPRAMRVVSSASDMETLPAALISGEGDVTTVQGQDVTDKLQNLDIKLSGGVQAKAGVINMDKSESMHMSLKFTIDSVNRGDTFEIKLSDNIDTNGASNYSIVEPIKSPTGEVYATGIYDSQKKSIVYSFTDFAASKNNINGILDIPLWPDDTTVQNTKEDVLFSVKIKDQEATIKETVKYDPPVRIDFAGGVSVDSRITNIDDVGKKMTYISQINVDGKSLYNYNGLYTRIYNYSKESTADLKNSTIKIYKTTSDNIVESMVQDYSSMEDVTSKFANSYPEKGWYDIYWGQFIASNETYVIVVETPFTNAVTLNTTLSDYNENNGVEHNHTYSSESGYSDVNAQ
As to B1, the Kd in the assay with human fibrinogen (Fbg) was 0.45 ± 0.02 nM; in assay [3], 629 nM.
